According to US20240309103A1 (Regeneron, published 2024):

B1: mAb22805 (antibody, human IgG4, V domains shown)
VH: QVQLVESGGGVVQPGRSLRLSCAASGFTFSTYGMHWVRQAPGKGLEWVALIWNDGSNKYYADSVKGRFTISRDNSKNTLDLQMNSLRAEDTAVYYCARLNTRITGTTNLDYWGQGTLVTVSS
VL: DIQMTQSPSSLSASVGDRVTVSCRASQSIANYLNWYQQKPGKAPNLLIYGAYTLQSGVPSRFRGSGSGTDFTLTISSLQPEDFATYYCQQTYSTPPITFGQGTRLEIK
B2: mAb22810 (antibody, human IgG4, V domains shown)
VH: EVQLVESGGGLVKPGGSLRLSCVVSGFTFRIYTMNWVRQAPGKGLEWVASISSSSSFINYADSLKGRFTISRDNAQNSLYLQMNSLRAEDTAIYYCARAAGNDVLPGRMDVWGQGTSVTVSS
VL: EIVLTQSPGTLSLSPGERATLSCRASQSVSSNYLAWYQQKPGQVPSLLIYGASSRATGIPDRFSGSGSGTDFTLTITRLEPEDFAVYYCQQYGISPWTFGQGTKVEIK
B3: mAb25502 (antibody, human IgG4, V domains shown)
VH: QLQLQESGPGLVKPSETLSLTCTVSGGSISSSSYYWGWIRQPPGKGLEWIGSIYYSGSPYYIPSLKSRVTISVDTSKNQFSLKLSSVTAADTAMYYCARQGRGIARAGPFDYWGQGTLVTVSS
VL: DIQMTQSPSSLSASVGDRVTITCRASQGISNYLAWYQEKPGKVPKLLIYAASTLQSGVPSRFSGSGSGTDFTLTITSLQSEDVATYYCQKYNSAPPWTFGQGTKVEIK
B4: mAb25545 (antibody, human IgG4, V domains shown)
VH: QVQLVESGGGLVKPGGSLRLSCAASGFTFSDYHLSWIRQAPGKGLEWVSYIRSSGRTIDYAASVKGRFTISRDNAKNSLYLQMNSLRVEDTAVYYCARENWIVLKVYAGIVGAPLDQWGQGTLVTVSS
VL: not shown

Assays:
mfNPR1-mFc:hANP complex [1] = target: T1, mfNPR1-mFc:hANP complex (monkey; human, UniProt P01160 124-151); experiment: SPR, mAb captured, 25C
T1 construct: also called monkey NPR1 complexed to ANP
Experimental: (§1) Equilibrium dissociation constant (KD) for different NPR1 reagents binding to purified anti-NPR1 monoclonal antibodies (mAbs) were determined using a real-time surface plasmon resonance based Biacore 4000 biosensor. All binding studies were performed in 10 mM HEPES, 150 mM NaCl, 3 mM EDTA, and 0.05% v/v Surfactant Tween-20, pH 7.4 (HBS-ET) running buffer at 25° C. and 37° C. The Biacore CM5 sensor chip surface was first derivatized by amine coupling with either mouse anti-human Fc specific mAb (GE Healthcare, #BR100839) or goat anti-human Fcy specific polyclonal antibody (Jackson ImmunoResearch Laboratories, #BR-1008-39) to capture anti-NPR1 mAbs.

mfNPR1-mFc:hBNP complex = target: T2, mfNPR1-mFc:hBNP complex (monkey; human, UniProt P16860 103-134); experiment: SPR, mAb captured, 25C
T2 construct: also called monkey NPR1 complexed to BNP
Experimental: as §1

hNPR1-mFc:hBNP complex [2] = target: T3, hNPR1-mFc:hBNP complex (human, UniProt P16860 103-134); experiment: SPR, mAb captured, 25C
T3 construct: also called human NPR1 complexed to BNP
Experimental: as §1

[3] = target: T4, hNPR1-mFc:hANP or hNPR1-hFc:hANP complex (human, UniProt P01160 124-151); experiment: SPR, mAb captured, 25C
T4 construct: also called human NPR1 complexed to ANP
Experimental: as §1

mfNPR1-mFc:hANP complex [4] = target: T1, mfNPR1-mFc:hANP complex; experiment: SPR, mAb captured, 37C
Experimental: as §1

hNPR1-mFc:hBNP complex [5] = target: T3, hNPR1-mFc:hBNP complex; experiment: SPR, mAb captured, 37C
Experimental: as §1

[6] = target: T4, hNPR1-mFc:hANP or hNPR1-hFc:hANP complex; experiment: SPR, mAb captured, 37C
Experimental: as §1

mfNPR1-mFc [7] = target: T5, mfNPR1-mFc (monkey); experiment: SPR, mAb captured, 25C
T5 construct: also called dimeric monkey NPR1
T5 chain: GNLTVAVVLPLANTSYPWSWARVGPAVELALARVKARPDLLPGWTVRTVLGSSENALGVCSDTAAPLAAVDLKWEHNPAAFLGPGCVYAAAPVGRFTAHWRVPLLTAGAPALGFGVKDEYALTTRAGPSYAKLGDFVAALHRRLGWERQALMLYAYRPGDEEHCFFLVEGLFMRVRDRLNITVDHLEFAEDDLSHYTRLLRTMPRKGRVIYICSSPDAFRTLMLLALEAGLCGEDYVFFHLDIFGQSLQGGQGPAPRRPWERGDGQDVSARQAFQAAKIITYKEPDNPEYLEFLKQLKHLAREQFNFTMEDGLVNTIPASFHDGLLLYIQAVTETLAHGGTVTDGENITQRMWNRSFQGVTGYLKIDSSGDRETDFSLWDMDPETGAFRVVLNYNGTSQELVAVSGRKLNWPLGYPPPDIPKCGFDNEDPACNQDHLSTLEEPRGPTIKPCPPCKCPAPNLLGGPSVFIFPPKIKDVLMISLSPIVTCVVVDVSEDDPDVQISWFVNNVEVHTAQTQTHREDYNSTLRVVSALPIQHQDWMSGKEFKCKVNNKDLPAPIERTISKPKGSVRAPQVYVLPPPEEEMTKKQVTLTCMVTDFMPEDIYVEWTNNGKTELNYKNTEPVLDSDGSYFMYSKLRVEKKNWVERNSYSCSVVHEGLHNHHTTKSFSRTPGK
Experimental: as §1

mfNPR1-mFc [8] = target: T5, mfNPR1-mFc; experiment: SPR, mAb captured, 37C
Experimental: as §1

Row | Binder | 100 nM Ag Bound (RU) (mfNPR1-mFc:hANP complex [1]) | Kd (mfNPR1-mFc:hANP complex [1]) | koff (mfNPR1-mFc:hANP complex [1]) | kon (mfNPR1-mFc:hANP complex [1]) | t½ (mfNPR1-mFc:hANP complex [1]) | 100 nM Ag Bound (RU) (mfNPR1-mFc:hBNP complex) | Kd (mfNPR1-mFc:hBNP complex) | koff (mfNPR1-mFc:hBNP complex) | kon (mfNPR1-mFc:hBNP complex) | t½ (mfNPR1-mFc:hBNP complex) | 100 nM Ag Bound (RU) [3] | Kd [3] | koff [3] | kon [3] | t½ [3] | 100 nM Ag Bound (RU) [6] | Kd [6] | koff [6] | kon [6] | t½ [6] | also measured
1 | B1 | 116 RU | 1.96 nM | 9.51e-05 s⁻¹ | 48400 M⁻¹ s⁻¹ | 2.02 h | 113 RU | 2.12 nM | 9.6e-05 s⁻¹ | 45300 M⁻¹ s⁻¹ | 2.01 h | 84 RU | 3.28 nM | 0.000141 s⁻¹ | 43100 M⁻¹ s⁻¹ | 1.36 h | 113 RU | 4.91 nM | 0.000295 s⁻¹ | 60100 M⁻¹ s⁻¹ | 0.653 h | 100 nM Ag Bound (RU) (hNPR1-mFc:hBNP complex [2]): 84 RU; Kd (hNPR1-mFc:hBNP complex [2]): 3.68 nM; koff (hNPR1-mFc:hBNP complex [2]): 0.000152 s⁻¹; kon (hNPR1-mFc:hBNP complex [2]): 41400 M⁻¹ s⁻¹; t½ (hNPR1-mFc:hBNP complex [2]): 1.26 h; 100 nM Ag Bound (RU) (mfNPR1-mFc:hANP complex [4]): 153 RU; Kd (mfNPR1-mFc:hANP complex [4]): 3.3 nM; koff (mfNPR1-mFc:hANP complex [4]): 0.000209 s⁻¹; kon (mfNPR1-mFc:hANP complex [4]): 63300 M⁻¹ s⁻¹; t½ (mfNPR1-mFc:hANP complex [4]): 0.922 h; 100 nM Ag Bound (RU) (hNPR1-mFc:hBNP complex [5]): 112 RU; Kd (hNPR1-mFc:hBNP complex [5]): 6.02 nM; koff (hNPR1-mFc:hBNP complex [5]): 0.000313 s⁻¹; kon (hNPR1-mFc:hBNP complex [5]): 52000 M⁻¹ s⁻¹; t½ (hNPR1-mFc:hBNP complex [5]): 0.615 h
2 | B2 |  |  |  |  |  |  |  |  |  |  | 14 RU | 41.4 nM | 0.000344 s⁻¹ | 8310 M⁻¹ s⁻¹ | 0.567 h | 26 RU | 75.5 nM | 0.00104 s⁻¹ | 13700 M⁻¹ s⁻¹ | 0.183 h | 
3 | B3 | 113 RU | 3.56 nM | 0.000264 s⁻¹ | 74000 M⁻¹ s⁻¹ | 0.73 h | 110 RU | 4.08 nM | 0.000282 s⁻¹ | 69000 M⁻¹ s⁻¹ | 0.683 h | 81 RU | 4.17 nM | 0.000253 s⁻¹ | 60600 M⁻¹ s⁻¹ | 0.762 h | 105 RU | 6.49 nM | 0.000467 s⁻¹ | 72000 M⁻¹ s⁻¹ | 0.412 h | 100 nM Ag Bound (RU) (hNPR1-mFc:hBNP complex [2]): 78 RU; Kd (hNPR1-mFc:hBNP complex [2]): 3.4 nM; koff (hNPR1-mFc:hBNP complex [2]): 0.000236 s⁻¹; kon (hNPR1-mFc:hBNP complex [2]): 69400 M⁻¹ s⁻¹; t½ (hNPR1-mFc:hBNP complex [2]): 0.817 h; 100 nM Ag Bound (RU) (mfNPR1-mFc [7]): 22 RU; Kd (mfNPR1-mFc [7]): 1.6 nM; koff (mfNPR1-mFc [7]): 0.000141 s⁻¹; kon (mfNPR1-mFc [7]): 88300 M⁻¹ s⁻¹; t½ (mfNPR1-mFc [7]): 1.37 h; 100 nM Ag Bound (RU) (mfNPR1-mFc:hANP complex [4]): 143 RU; Kd (mfNPR1-mFc:hANP complex [4]): 5.76 nM; koff (mfNPR1-mFc:hANP complex [4]): 0.000524 s⁻¹; kon (mfNPR1-mFc:hANP complex [4]): 91000 M⁻¹ s⁻¹; t½ (mfNPR1-mFc:hANP complex [4]): 0.367 h; 100 nM Ag Bound (RU) (hNPR1-mFc:hBNP complex [5]): 102 RU; Kd (hNPR1-mFc:hBNP complex [5]): 7.82 nM; koff (hNPR1-mFc:hBNP complex [5]): 0.000472 s⁻¹; kon (hNPR1-mFc:hBNP complex [5]): 60300 M⁻¹ s⁻¹; t½ (hNPR1-mFc:hBNP complex [5]): 0.408 h
4 | B4 | 45 RU | 2.35 nM | 5.37e-05 s⁻¹ | 22800 M⁻¹ s⁻¹ | 3.58 h | 42 RU | 2.08 nM | 4.97e-05 s⁻¹ | 23900 M⁻¹ s⁻¹ | 3.88 h | 28 RU | 1.98 nM | 4.63e-05 s⁻¹ | 23400 M⁻¹ s⁻¹ | 4.16 h | 58 RU | 2.35 nM | 8.61e-05 s⁻¹ | 36700 M⁻¹ s⁻¹ | 2.24 h | 100 nM Ag Bound (RU) (hNPR1-mFc:hBNP complex [2]): 27 RU; Kd (hNPR1-mFc:hBNP complex [2]): 2.72 nM; koff (hNPR1-mFc:hBNP complex [2]): 6.26e-05 s⁻¹; kon (hNPR1-mFc:hBNP complex [2]): 23000 M⁻¹ s⁻¹; t½ (hNPR1-mFc:hBNP complex [2]): 3.08 h; 100 nM Ag Bound (RU) (mfNPR1-mFc:hANP complex [4]): 86 RU; Kd (mfNPR1-mFc:hANP complex [4]): 2.04 nM; koff (mfNPR1-mFc:hANP complex [4]): 8.18e-05 s⁻¹; kon (mfNPR1-mFc:hANP complex [4]): 40100 M⁻¹ s⁻¹; t½ (mfNPR1-mFc:hANP complex [4]): 2.35 h; 100 nM Ag Bound (RU) (hNPR1-mFc:hBNP complex [5]): 56 RU; Kd (hNPR1-mFc:hBNP complex [5]): 2.85 nM; koff (hNPR1-mFc:hBNP complex [5]): 9.84e-05 s⁻¹; kon (hNPR1-mFc:hBNP complex [5]): 34600 M⁻¹ s⁻¹; t½ (hNPR1-mFc:hBNP complex [5]): 1.95 h; 100 nM Ag Bound (RU) (mfNPR1-mFc [8]): 26 RU; Kd (mfNPR1-mFc [8]): 2.62 nM; koff (mfNPR1-mFc [8]): 0.000144 s⁻¹; kon (mfNPR1-mFc [8]): 55100 M⁻¹ s⁻¹; t½ (mfNPR1-mFc [8]): 1.33 h
